# Test results reported in paper PMC9482650, “Quantitative fragmentomics allow affinity mapping of interactomes” (Nature Communications, 2022).
# T1: SHANK1, Q9Y566
# T1 sequence (Q9Y566 658-767, limits assumed, looked up): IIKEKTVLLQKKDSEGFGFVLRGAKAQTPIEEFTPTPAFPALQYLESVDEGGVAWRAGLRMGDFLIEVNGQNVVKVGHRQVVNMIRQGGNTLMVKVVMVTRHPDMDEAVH
# T2: CARD11, Q9BXL7
# T2 sequence (Q9BXL7 662-765, limits assumed, looked up): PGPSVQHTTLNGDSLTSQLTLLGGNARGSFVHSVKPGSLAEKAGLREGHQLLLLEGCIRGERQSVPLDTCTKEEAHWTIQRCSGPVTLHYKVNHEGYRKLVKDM
# T3: MPDZ_12, O75970
# T3 sequence (O75970 1857-1958, limits assumed, looked up): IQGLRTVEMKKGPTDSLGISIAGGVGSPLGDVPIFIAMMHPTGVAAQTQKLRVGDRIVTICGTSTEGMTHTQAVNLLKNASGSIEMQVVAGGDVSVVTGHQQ
# T4: PARD3B_1, Q8TEW8
# T4 sequence (Q8TEW8 196-299, limits assumed, looked up): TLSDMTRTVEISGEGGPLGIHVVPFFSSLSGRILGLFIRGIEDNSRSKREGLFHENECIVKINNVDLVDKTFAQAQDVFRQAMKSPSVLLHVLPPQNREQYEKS
# T5: SIPA1L2, Q9P2F8
# T5 sequence (Q9P2F8 945-1036, limits assumed, looked up): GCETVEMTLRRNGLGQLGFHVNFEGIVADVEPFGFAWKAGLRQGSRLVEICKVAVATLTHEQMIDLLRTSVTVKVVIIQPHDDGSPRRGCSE
# T6: GRIP1_4, Q9Y3R0
# T6 sequence (Q9Y3R0 467-571, limits assumed, looked up): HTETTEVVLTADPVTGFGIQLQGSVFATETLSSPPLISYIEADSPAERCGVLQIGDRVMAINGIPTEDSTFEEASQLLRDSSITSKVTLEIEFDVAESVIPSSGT
# T7: RHPN1, Q8TCX5
# T7 sequence (Q8TCX5 508-602, limits assumed, looked up): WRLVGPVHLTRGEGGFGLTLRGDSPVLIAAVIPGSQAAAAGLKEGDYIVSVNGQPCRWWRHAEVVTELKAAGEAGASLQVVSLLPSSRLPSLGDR
# T8: LIN7C, Q9NUP9
# T8 sequence (Q9NUP9 88-185, limits assumed, looked up): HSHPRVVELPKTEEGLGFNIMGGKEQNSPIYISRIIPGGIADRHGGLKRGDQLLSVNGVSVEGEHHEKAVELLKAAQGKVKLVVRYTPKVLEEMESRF
# Target: HTRA2, O43464
# Experiment: holdup assay
# Design: key: below the threshold = too weak to quantify, mostly under pKd 3.1 to 4
# Conditions: plain residues with an end cap or a label only (N-terminal biotin on a linker: ado-ado)
# Chain of HTRA2, O43464 (O43464 355-458): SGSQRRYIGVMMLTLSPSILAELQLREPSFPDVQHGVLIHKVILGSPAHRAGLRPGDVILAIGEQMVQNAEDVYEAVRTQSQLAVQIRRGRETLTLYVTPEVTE
row,pKd,Binder
1,4.44,"NISARRFTLC [FAM167B, Q9BTA0]"
2,below the threshold,"LVEEEEPMNL [HDAC7, Q8WUI4]"

# Target: LNX1_3, Q8TBB1
# Experiment: holdup assay
# Design: key: below the threshold = too weak to quantify, mostly under pKd 3.1 to 4
# Conditions: plain residues with an end cap or a label only (N-terminal biotin on a linker: ado-ado)
# Chain of LNX1_3, Q8TBB1 (Q8TBB1 500-596): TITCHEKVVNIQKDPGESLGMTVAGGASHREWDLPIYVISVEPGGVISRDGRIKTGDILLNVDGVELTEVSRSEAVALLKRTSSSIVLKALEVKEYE
row,pKd,Binder
1,below the threshold,"NISARRFTLC [FAM167B, Q9BTA0]"
2,below the threshold,"LVEEEEPMNL [HDAC7, Q8WUI4]"

# Target: GRID2IP_2, A4D2P6
# Experiment: holdup assay
# Design: key: below the threshold = too weak to quantify, mostly under pKd 3.1 to 4
# Conditions: plain residues with an end cap or a label only (N-terminal biotin on a linker: ado-ado)
# Chain of GRID2IP_2, A4D2P6 (A4D2P6 272-370): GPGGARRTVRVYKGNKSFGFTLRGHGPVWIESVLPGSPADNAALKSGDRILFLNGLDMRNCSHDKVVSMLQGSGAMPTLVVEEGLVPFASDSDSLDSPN
row,pKd,Binder
1,4.21,"NISARRFTLC [FAM167B, Q9BTA0]"
2,below the threshold,"LVEEEEPMNL [HDAC7, Q8WUI4]"

# Target: T1, SHANK1, Q9Y566
# Experiment: holdup assay
# Design: key: below the threshold = too weak to quantify, mostly under pKd 3.1 to 4
# Conditions: plain residues with an end cap or a label only (N-terminal biotin on a linker: ado-ado)
row,pKd,Binder
1,below the threshold,"NISARRFTLC [FAM167B, Q9BTA0]"
2,below the threshold,"LVEEEEPMNL [HDAC7, Q8WUI4]"

# Target: T2, CARD11, Q9BXL7
# Experiment: holdup assay
# Design: key: below the threshold = too weak to quantify, mostly under pKd 3.1 to 4
# Conditions: plain residues with an end cap or a label only (N-terminal biotin on a linker: ado-ado)
row,pKd,Binder
1,below the threshold,"NISARRFTLC [FAM167B, Q9BTA0]"
2,below the threshold,"LVEEEEPMNL [HDAC7, Q8WUI4]"

# Target: FRMPD4, Q14CM0
# Experiment: holdup assay
# Design: key: below the threshold = too weak to quantify, mostly under pKd 3.1 to 4
# Conditions: plain residues with an end cap or a label only (N-terminal biotin on a linker: ado-ado)
# Chain of FRMPD4, Q14CM0 (Q14CM0 67-160): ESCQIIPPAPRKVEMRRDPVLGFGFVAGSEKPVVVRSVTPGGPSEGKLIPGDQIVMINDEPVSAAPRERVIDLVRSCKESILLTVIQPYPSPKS
row,pKd,Binder
1,below the threshold,"NISARRFTLC [FAM167B, Q9BTA0]"
2,3.86,"LVEEEEPMNL [HDAC7, Q8WUI4]"

# Target: SNX27, Q96L92
# Experiment: holdup assay
# Design: key: below the threshold = too weak to quantify, mostly under pKd 3.1 to 4
# Conditions: plain residues with an end cap or a label only (N-terminal biotin on a linker: ado-ado)
row,pKd,Binder
1,below the threshold,"NISARRFTLC [FAM167B, Q9BTA0]"
2,below the threshold,"LVEEEEPMNL [HDAC7, Q8WUI4]"

# Target: MAGI2_2, Q86UL8
# Experiment: holdup assay
# Design: key: below the threshold = too weak to quantify, mostly under pKd 3.1 to 4
# Conditions: plain residues with an end cap or a label only (N-terminal biotin on a linker: ado-ado)
# Chain of MAGI2_2, Q86UL8 (Q86UL8 410-522): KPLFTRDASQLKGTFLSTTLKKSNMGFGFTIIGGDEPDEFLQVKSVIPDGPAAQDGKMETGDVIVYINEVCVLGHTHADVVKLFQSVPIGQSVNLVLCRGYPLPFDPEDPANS
row,pKd,Binder
1,4.76,"NISARRFTLC [FAM167B, Q9BTA0]"
2,below the threshold,"LVEEEEPMNL [HDAC7, Q8WUI4]"

# Target: Inadl_1, Q8NI35
# Experiment: holdup assay
# Design: key: below the threshold = too weak to quantify, mostly under pKd 3.1 to 4
# Conditions: plain residues with an end cap or a label only (N-terminal biotin on a linker: ado-ado)
# Chain of Inadl_1, Q8NI35 (Q8NI35 113-229): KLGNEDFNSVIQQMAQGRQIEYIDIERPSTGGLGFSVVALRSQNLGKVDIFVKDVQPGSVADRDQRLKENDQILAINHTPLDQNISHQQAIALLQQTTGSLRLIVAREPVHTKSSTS
row,pKd,Binder
1,below the threshold,"NISARRFTLC [FAM167B, Q9BTA0]"
2,below the threshold,"LVEEEEPMNL [HDAC7, Q8WUI4]"

# Target: PTPN3, P26045
# Experiment: holdup assay
# Design: key: below the threshold = too weak to quantify, mostly under pKd 3.1 to 4
# Conditions: plain residues with an end cap or a label only (N-terminal biotin on a linker: ado-ado)
# Chain of PTPN3, P26045 (P26045 505-587): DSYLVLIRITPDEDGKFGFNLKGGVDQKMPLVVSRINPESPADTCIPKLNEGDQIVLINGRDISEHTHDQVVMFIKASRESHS
row,pKd,Binder
1,3.61,"NISARRFTLC [FAM167B, Q9BTA0]"
2,4.04,"LVEEEEPMNL [HDAC7, Q8WUI4]"

# Target: T3, MPDZ_12, O75970
# Experiment: holdup assay
# Design: key: below the threshold = too weak to quantify, mostly under pKd 3.1 to 4
# Conditions: plain residues with an end cap or a label only (N-terminal biotin on a linker: ado-ado)
row,pKd,Binder
1,3.52,"NISARRFTLC [FAM167B, Q9BTA0]"
2,below the threshold,"LVEEEEPMNL [HDAC7, Q8WUI4]"

# Target: Inadl_6, Q8NI35
# Experiment: holdup assay
# Design: key: below the threshold = too weak to quantify, mostly under pKd 3.1 to 4
# Conditions: plain residues with an end cap or a label only (N-terminal biotin on a linker: ado-ado)
# Chain of Inadl_6, Q8NI35 (Q8NI35 1058-1167): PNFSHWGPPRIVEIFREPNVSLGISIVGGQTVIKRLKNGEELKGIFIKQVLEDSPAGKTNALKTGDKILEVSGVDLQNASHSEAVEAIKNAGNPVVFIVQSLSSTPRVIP
row,pKd,Binder
1,below the threshold,"NISARRFTLC [FAM167B, Q9BTA0]"
2,below the threshold,"LVEEEEPMNL [HDAC7, Q8WUI4]"

# Target: T4, PARD3B_1, Q8TEW8
# Experiment: holdup assay
# Design: key: below the threshold = too weak to quantify, mostly under pKd 3.1 to 4
# Conditions: plain residues with an end cap or a label only (N-terminal biotin on a linker: ado-ado)
row,pKd,Binder
1,below the threshold,"NISARRFTLC [FAM167B, Q9BTA0]"
2,below the threshold,"LVEEEEPMNL [HDAC7, Q8WUI4]"

# Target: T5, SIPA1L2, Q9P2F8
# Experiment: holdup assay
# Design: key: below the threshold = too weak to quantify, mostly under pKd 3.1 to 4
# Conditions: plain residues with an end cap or a label only (N-terminal biotin on a linker: ado-ado)
row,pKd,Binder
1,3.73,"NISARRFTLC [FAM167B, Q9BTA0]"
2,below the threshold,"LVEEEEPMNL [HDAC7, Q8WUI4]"

# Target: GORASP1, Q9BQQ3
# Experiment: holdup assay
# Design: key: below the threshold = too weak to quantify, mostly under pKd 3.1 to 4
# Conditions: plain residues with an end cap or a label only (N-terminal biotin on a linker: ado-ado)
# Chain of GORASP1, Q9BQQ3 (Q9BQQ3 1-208): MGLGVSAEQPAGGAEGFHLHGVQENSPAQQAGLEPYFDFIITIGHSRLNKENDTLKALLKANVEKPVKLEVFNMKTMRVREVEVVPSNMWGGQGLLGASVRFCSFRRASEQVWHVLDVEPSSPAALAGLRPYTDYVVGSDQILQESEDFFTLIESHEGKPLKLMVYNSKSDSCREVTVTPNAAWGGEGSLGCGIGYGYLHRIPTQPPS
row,pKd,Binder
1,3.9,"NISARRFTLC [FAM167B, Q9BTA0]"
2,below the threshold,"LVEEEEPMNL [HDAC7, Q8WUI4]"

# Target: Inadl_2, Q8NI35
# Experiment: holdup assay
# Design: key: below the threshold = too weak to quantify, mostly under pKd 3.1 to 4
# Conditions: plain residues with an end cap or a label only (N-terminal biotin on a linker: ado-ado)
# Chain of Inadl_2, Q8NI35 (Q8NI35 238-335): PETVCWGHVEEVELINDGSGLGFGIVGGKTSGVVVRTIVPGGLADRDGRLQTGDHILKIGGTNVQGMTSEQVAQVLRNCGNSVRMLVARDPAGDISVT
row,pKd,Binder
1,below the threshold,"NISARRFTLC [FAM167B, Q9BTA0]"
2,below the threshold,"LVEEEEPMNL [HDAC7, Q8WUI4]"

# Target: DLG1_3, Q12959
# Experiment: holdup assay
# Design: key: below the threshold = too weak to quantify, mostly under pKd 3.1 to 4
# Conditions: plain residues with an end cap or a label only (N-terminal biotin on a linker: ado-ado)
# Chain of DLG1_3, Q12959 (Q12959 457-571): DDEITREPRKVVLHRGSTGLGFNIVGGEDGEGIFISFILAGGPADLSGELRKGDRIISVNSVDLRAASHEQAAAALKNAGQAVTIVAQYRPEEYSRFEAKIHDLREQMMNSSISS
row,pKd,Binder
1,4.06,"NISARRFTLC [FAM167B, Q9BTA0]"
2,below the threshold,"LVEEEEPMNL [HDAC7, Q8WUI4]"

# Target: T6, GRIP1_4, Q9Y3R0
# Experiment: holdup assay
# Design: key: below the threshold = too weak to quantify, mostly under pKd 3.1 to 4
# Conditions: plain residues with an end cap or a label only (N-terminal biotin on a linker: ado-ado)
row,pKd,Binder
1,below the threshold,"NISARRFTLC [FAM167B, Q9BTA0]"
2,below the threshold,"LVEEEEPMNL [HDAC7, Q8WUI4]"

# Target: DLG4_1, P78352
# Experiment: holdup assay
# Design: key: below the threshold = too weak to quantify, mostly under pKd 3.1 to 4
# Conditions: plain residues with an end cap or a label only (N-terminal biotin on a linker: ado-ado)
# Chain of DLG4_1, P78352 (P78352 62-152): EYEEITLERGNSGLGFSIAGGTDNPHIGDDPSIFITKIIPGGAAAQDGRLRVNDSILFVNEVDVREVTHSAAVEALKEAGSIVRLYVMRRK
row,pKd,Binder
1,4.35,"NISARRFTLC [FAM167B, Q9BTA0]"
2,below the threshold,"LVEEEEPMNL [HDAC7, Q8WUI4]"

# Target: FRMPD2_2, Q68DX3
# Experiment: holdup assay
# Design: key: below the threshold = too weak to quantify, mostly under pKd 3.1 to 4
# Conditions: plain residues with an end cap or a label only (N-terminal biotin on a linker: ado-ado)
# Chain of FRMPD2_2, Q68DX3 (Q68DX3 944-1038): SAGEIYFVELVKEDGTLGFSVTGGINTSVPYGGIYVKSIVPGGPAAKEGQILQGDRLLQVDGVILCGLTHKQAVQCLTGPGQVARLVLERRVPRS
row,pKd,Binder
1,3.67,"NISARRFTLC [FAM167B, Q9BTA0]"
2,below the threshold,"LVEEEEPMNL [HDAC7, Q8WUI4]"

# Target: NHERF2_2, Q15599
# Experiment: holdup assay
# Design: key: below the threshold = too weak to quantify, mostly under pKd 3.1 to 4
# Conditions: plain residues with an end cap or a label only (N-terminal biotin on a linker: ado-ado)
# Chain of NHERF2_2, Q15599 (Q15599 142-238): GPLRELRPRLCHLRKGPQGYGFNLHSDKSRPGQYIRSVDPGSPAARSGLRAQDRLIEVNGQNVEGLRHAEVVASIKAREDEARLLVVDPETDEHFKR
row,pKd,Binder
1,below the threshold,"NISARRFTLC [FAM167B, Q9BTA0]"
2,3.5,"LVEEEEPMNL [HDAC7, Q8WUI4]"

# Target: T7, RHPN1, Q8TCX5
# Experiment: holdup assay
# Design: key: below the threshold = too weak to quantify, mostly under pKd 3.1 to 4
# Conditions: plain residues with an end cap or a label only (N-terminal biotin on a linker: ado-ado)
row,pKd,Binder
1,below the threshold,"NISARRFTLC [FAM167B, Q9BTA0]"
2,below the threshold,"LVEEEEPMNL [HDAC7, Q8WUI4]"

# Target: NHERF4_4, Q86UT5
# Experiment: holdup assay
# Design: key: below the threshold = too weak to quantify, mostly under pKd 3.1 to 4
# Conditions: plain residues with an end cap or a label only (N-terminal biotin on a linker: ado-ado)
# Chain of NHERF4_4, Q86UT5 (Q86UT5 464-550): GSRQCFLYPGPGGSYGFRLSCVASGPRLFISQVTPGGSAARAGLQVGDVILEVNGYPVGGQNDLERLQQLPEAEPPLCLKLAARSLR
row,pKd,Binder
1,below the threshold,"NISARRFTLC [FAM167B, Q9BTA0]"
2,3.78,"LVEEEEPMNL [HDAC7, Q8WUI4]"

# Target: GRIP2_4, Q9C0E4
# Experiment: holdup assay
# Design: key: below the threshold = too weak to quantify, mostly under pKd 3.1 to 4
# Conditions: plain residues with an end cap or a label only (N-terminal biotin on a linker: ado-ado)
# Chain of GRIP2_4, Q9C0E4 (Q9C0E4 446-548): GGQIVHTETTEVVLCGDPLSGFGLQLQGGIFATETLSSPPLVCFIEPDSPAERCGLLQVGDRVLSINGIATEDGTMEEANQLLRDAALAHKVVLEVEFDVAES
row,pKd,Binder
1,below the threshold,"NISARRFTLC [FAM167B, Q9BTA0]"
2,below the threshold,"LVEEEEPMNL [HDAC7, Q8WUI4]"

# Target: T8, LIN7C, Q9NUP9
# Experiment: holdup assay
# Design: key: below the threshold = too weak to quantify, mostly under pKd 3.1 to 4
# Conditions: plain residues with an end cap or a label only (N-terminal biotin on a linker: ado-ado)
row,pKd,Binder
1,below the threshold,"NISARRFTLC [FAM167B, Q9BTA0]"
2,4.12,"LVEEEEPMNL [HDAC7, Q8WUI4]"

# Target: LDB3, O75112
# Experiment: holdup assay
# Design: key: below the threshold = too weak to quantify, mostly under pKd 3.1 to 4
# Conditions: plain residues with an end cap or a label only (N-terminal biotin on a linker: ado-ado)
# Chain of LDB3, O75112 (O75112 1-94): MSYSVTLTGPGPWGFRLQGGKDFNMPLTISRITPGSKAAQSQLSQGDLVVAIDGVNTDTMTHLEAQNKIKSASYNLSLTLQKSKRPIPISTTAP
row,pKd,Binder
1,below the threshold,"NISARRFTLC [FAM167B, Q9BTA0]"
2,below the threshold,"LVEEEEPMNL [HDAC7, Q8WUI4]"

# Target: MAGI2_6, Q86UL8
# Experiment: holdup assay
# Design: key: below the threshold = too weak to quantify, mostly under pKd 3.1 to 4
# Conditions: plain residues with an end cap or a label only (N-terminal biotin on a linker: ado-ado)
# Chain of MAGI2_6, Q86UL8 (Q86UL8 1141-1229): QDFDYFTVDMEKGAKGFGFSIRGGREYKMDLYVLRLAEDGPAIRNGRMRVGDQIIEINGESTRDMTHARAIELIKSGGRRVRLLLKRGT
row,pKd,Binder
1,below the threshold,"NISARRFTLC [FAM167B, Q9BTA0]"
2,below the threshold,"LVEEEEPMNL [HDAC7, Q8WUI4]"

# Target: SCRIB_3, Q14160
# Experiment: holdup assay
# Design: key: below the threshold = too weak to quantify, mostly under pKd 3.1 to 4
# Conditions: plain residues with an end cap or a label only (N-terminal biotin on a linker: ado-ado)
# Chain of SCRIB_3, Q14160 (Q14160 999-1103): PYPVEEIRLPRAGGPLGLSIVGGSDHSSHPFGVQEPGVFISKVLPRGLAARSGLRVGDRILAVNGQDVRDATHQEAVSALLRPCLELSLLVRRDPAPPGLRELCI
row,pKd,Binder
1,below the threshold,"NISARRFTLC [FAM167B, Q9BTA0]"
2,below the threshold,"LVEEEEPMNL [HDAC7, Q8WUI4]"

# Target: NHERF4_1, Q86UT5-2
# Experiment: holdup assay
# Design: key: below the threshold = too weak to quantify, mostly under pKd 3.1 to 4
# Conditions: plain residues with an end cap or a label only (N-terminal biotin on a linker: ado-ado)
# Chain of NHERF4_1, Q86UT5-2 (Q86UT5 other isoform, or with tags, fused parts or gaps): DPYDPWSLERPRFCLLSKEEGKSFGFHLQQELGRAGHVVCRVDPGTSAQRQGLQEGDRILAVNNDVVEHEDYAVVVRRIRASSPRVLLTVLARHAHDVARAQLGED
row,pKd,Binder
1,4.27,"NISARRFTLC [FAM167B, Q9BTA0]"
2,3.57,"LVEEEEPMNL [HDAC7, Q8WUI4]"
